Assay results from US20120027773A1.

Experiments:
[1] = target: human wild-type RON (cell surface) (human) (UniProt Q04912); assay: FACS, 10 ug/ml, PC3 cells, 4 C; negative control
[2] = target: delta 160 RON variant (cell surface) (human) (UniProt Q04912); assay: FACS, 10 ug/ml, HT-29 cells, 4 C; negative control

**Q.** Which results are given for murine IgG control (antibody)?
**A.** PC3 % cell surface binding [1]: 5.5%; HT-29 % cell surface binding [2]: 5.62%
